Data on 13 molecules can be found in US20130289246A1 (VANDERBILT UNIVERSITY, published 2013).

Assay [1] concerns the target T1, first-generation H3 LAH construct H3frThrST (Influenza A virus (H3)). Kind of assay: ELISA, supernate. (ELISA stands for enzyme-linked immunosorbent assay.)
In assay [2] the target is T2, first-generation H1 LAH construct H1frThrST (Influenza A virus (H1)). Kind of assay: ELISA, supernate.
The target of assay [3] is T1, first-generation H3 LAH construct …. Briefly: ELISA, supernate. This is another data set of the same source.
For assay [4], the target named is T2, first-generation H1 LAH construct …. Briefly: ELISA, supernate. This is another data set of the same source.
In assay [5] the target is T1, first-generation H3 LAH construct …. Briefly: ELISA, supernate. This is another data set of the same source.
Assay [6] deals with T2, first-generation H1 LAH construct …. Briefly: ELISA, supernate. The source holds these as a separate data set.
Assay [7] concerns the target T1, first-generation H3 LAH construct …. Kind of assay: ELISA, supernate. The source holds these as a separate data set.
The target of assay [8] is T2, first-generation H1 LAH construct …. Kind of assay: ELISA, supernate. The source holds these as a separate data set.
Assay [9] has as its target T1, first-generation H3 LAH construct …. Briefly: ELISA, supernate. The source holds these as a separate data set.
Assay [10] has as its target T2, first-generation H1 LAH construct …. Briefly: ELISA, supernate. The source holds these as a separate data set.
In assay [11] the target is T1, first-generation H3 LAH construct …. Briefly: ELISA, supernate. The source holds these as a separate data set.
The target of assay [12] is T2, first-generation H1 LAH construct …. Kind of assay: ELISA, supernate. The source holds these as a separate data set.
Assay [13] has as its target T1, first-generation H3 LAH construct …. Kind of assay: ELISA, recombinant mAb.
For assay [14], the target named is T2, first-generation H1 LAH construct …. Briefly: ELISA, recombinant mAb.

B1: mAb 3E22 (antibody, V domains shown)
VH: EVQLVESGAEVKKPGASVKVSCKASGYTFSRYYIHWVRQAPGQELEWMGWINPDSGDTNYAQKFRGRVTMARDTSISTVYMELNSLRYDDTAVYFCARIIWSSSGMDVWGQGTTVTVS
VL: QSALTQPASVSGSPGQSITISCTGTSSDVGSYNLVSWYQQHPGKAPKLMIYEVSKRPSGVSNRFSGSKSGNTASLTISGLQAEDEADYYCHLYVGSSNWVFGGGTKLAVLG
B1: the values for the OD in assay [1] and in assay [2] were 0.086 OD and 0.087 OD, respectively. The binding result in assay [3] and in assay [4] was “no binding” throughout.

B2: mAb 7A13 (antibody, V domains shown)
VH: QVQLQESAPGLVKPSGTLSLTCAVSGASLSSSDWWTWVRQPPGKGLEWIGEIHHGGSTNSNPSLQSRVTISIDKSKKQFSLKLTSVTVADTAVYYCARAPGADAGPYSENIHHWGQGTLVTVS
VL: QLVLTQSPSASASLGASVKLTCTLSSRHSDYAIGWHQQQPGKGPRYLMKLNPDGSHTKGDGIPDRFSGSSSGAERYLTISNLLSEDEADYYCQTWGTGIQVFGGGTRLTVIS
On to B2, for which the OD in [5] and in assay [6] was 0.068 OD in each case.

B3: mAb 25J3 (antibody, V domains shown)
VH: QVQLQESGPGLVRPSETLSLTCNVSGDSINDYYWSWIRQPPGKGLEWIGYIYYSGSTNYNPSLNSRVTISVEMSKNQFSLILNSVTAADTAVYYCARVDYDSGGSFDPWGQGTLVTVS
VL: QSVLTQPPSVSGAPGQRVTISCTGSSSNIGAGYDVHWYQQLPGTAPKLLIYGNSNRPSGVPDRFSGSKSGTSASLAITGLQAEDEADFYCQSYDSRLSGYVFGTGTKVTVLG
For the molecule B3, the OD in assay [5] turned out to be 0.067 OD; in assay [6] it was 0.068 OD.

B4: mAb 5J8 (antibody, V domains shown)
VH: EVQLVESGPGLVKPSDILSLTCAVSGYSISSNYYWGWIRQPPGKGLEWIGSIYHSGSTYYKPSLESRLGISVDTSKNQFSLKLSFVSAADTAVYYCARHVRSGYPDTAYYFDKWGQGTLVTVS
VL: SYVLTQPPSVSVAPGETARISCGGNNIGTKVLHWYQQTPGQAPVLVVYDDSDRPSGIPERFSGSNSGNTATLTISRVEVGDEADYYCQVWDISTDQAVFGGGTKLTVLG
On to B4, for which the OD in assay [7] stood at 0.083 OD; in [8], 0.076 OD.

B5: mAb 11J19 (antibody, V domains shown)
VH: EVQLQESGPGLVKPSETLSLSCTVSGGSITRSSYYWGWIRQPPGKGLEWIGNIYYSGTTYYNPSLKSRVTISVDTSKNQFSLKLSSVTAADTAVYYCARLYGSGLDYWGQGTLVTVS
VL: DIQLTQSPSFLSASVGDRVTITCRASQGSSRYVAWYQQKPGKAPKLLILAASTLHTGVPSRFSGSGSGTEFTLTISSLQPEDFATYSCQQLNGFLLTFGGGTKVEIKR
Consider B5, for which the OD stood at 0.075 OD in assay [5] and 0.085 OD in assay [6].

B6: mAb 10E15 (antibody, V domains shown)
VH: EVQLLESGGGVVQPGRSLRLSCAASGFTFRTYGMHWVRQAPGKGLEWVAVISHDGNLKYYGGSVKGRFTISRDNSKNALYLQMNSLRVDDTALYYCARGIGITDAFDIRGQGTMVVVS
VL: QSVLTQPPSVSAAPGQKVTISCSGSSSNIGKNYVSWYQQLPGTAPKLLIYDNDKRPSGIPDRFSGSKSGTSATLGITGLQTGDEADYHCGAWDSSLNGGVFGGGTKVTVLG
As to B6, the OD in assay [9] is 0.07 OD; in assay [10], 0.068 OD. The binding result in assay [4] was “no binding”.

B7: mAb 2O10 (antibody, V domains shown)
VH: EVQLVESGGGLVQPGGSLRLSCAASGFTFNSYWMTWVRQAPGKGLEWVANINQDGSEKFFVDSVKGRFTISRDNAKTSLYLQMNSLRVEDTAVYYCAREGAPYDTYYYYYAMDVWGQGTTVTVS
VL: QSVLTQPPSVSGAPGQRVTISCTGTSSNIGAGYGVHWYQQLPGAAPKLLVYGNSNRPSGVPDRFSGSKSGTSASLAITGLQAEDEADYYCQSYDISLSGSNVFGTGTKVTVLG
In the case of B7, the results for the OD in assay [7] and in assay [8] were 0.074 OD and 0.072 OD, respectively.

B8: mAb 4A10 (antibody, V domains shown)
VH: EVQLVESGGGLVQPGGSLRLSCAASGFSFSSYWMTWVRQAPGKGLEWVANIKQYGSEKYYVDSVKGRFTISRDNAKNSLYLQMNSLRDDDTAVYYCARMGSYLDTYYYHYGMDVWGQGTTVTVS
VL: QSVLTQPPSLSGAPGQRVTISCTGSSSNIGADYDVYWYQHLPGTAPKLLMYGDGYRPSGVPDRFSGSKSGTSASLAITGLQAEDEADYYCQSYDSSLSRRVVFGGGTKLTVLG
B8: the OD in [7] came out at 0.073 OD; in [8], 0.069 OD.

B9: mAb 18G6 (antibody, V domains shown)
VH: QVQLKESGPGLVKPSETLSLTCTVSGGSISSSNYNWGWIRQPPGKGLEWIGSVYYSGSTYFNPSLKSRVTISVDTSKNQFSLKLTSVTAADTAVYYCARLIAFYYDTNGYTWGQGTLVTVS
VL: NSIMTQSPFTLSASVGDKVTITCRASQSISPWLAWYQQKPGKAPKLLIYKASSLETGVPSRFSGSESGTEFTLTISGLQPDDFATYYCQQYSSFARTFGQGTKVEIKR
As for B9, the OD in assay [5] and in assay [6] was 0.071 OD each time.

B10: mAb 6J24 (antibody, V domains shown)
VH: EVQLVESGGGLVQPGRSLRLSCVGSGFNFDGYAMQWVRQVPGKGLEWVSGISWHSDSTGYADSVRGRFTISRDNAKNSLYLQMDSLRPEDTAFYYCGKSIGHVGGSYRHPIDYWGQGTLVTVS
VL: DIQLTQSPSSLSASVGDRVTITCRASQGITDYLAWYQQKPGTIPKLLIYAASTLQSGVPSRFSGGGYGTDFTLTISSLQPEDVATYYCQKYNSAPLTFGGGTKVEIKR
With B10, the values for the OD in assay [11] and in assay [12] were 0.94 OD and 0.418 OD, respectively.

B11: mAb 8F8 (antibody, V domains shown)
VH: EVQLLESGGGVVQPGRSLRLSCAASGFMFSSYVMHWVRQPPGKGLEWVAVIWYDGSKTYFADSMRGRLTVSRDNSKNALYLQMNRLRAEDTAVYYCARQQDSGYSGPEVSYYSHYGMDVWGQGTTVIVS
VL: QSVLTQSPSASGTPGRAITISCSGSSSNIGSNPVNWYQQLPGAAPKLLIYADEHRPSGVPDRFSGPKSGTSASLAISGLQSEDEADYYCAAWDDSLSGPAVVFGGGTKLTVLG
Turning to B11, the OD in [5] and in [6] was 0.071 OD each time.

B12: mAb 2K11 (antibody, V domains shown)
VH: EVQLVESGGGLVQPGGSLRLSCVASTFSLINYWMTWVRQAPGKGLEWVANIKQDGFEKYYVDSVKGRFTISRDNAKNSLYLQMNSLRVEDTAVYYCARQGSYADTYFYHYGMDVWGQGTTVTVS
VL: QSALTQPPSVSGAPGQRVTISCTGSSSNIGAGYDAYWYQQLPGTAPKLLIYGNSNRLSGVPDRFSASKSGTSASLAITGLQAEDEADYYCQSYDSSLSIFGGGTKLTVLR
Turning to B12, the results for the OD in assay [7] and in assay [8] were 0.072 OD and 0.079 OD, respectively.

B13: mAb 3N6 (recombinant) (antibody, V domains shown)
VH: QVQLQESGPGLVKPSETLSLTCSVSGGSINYYYWSWIRQPPGKGLECIGYISDTGRTYYNPSLRSRVTISVDTSKNQFSLNLTSMTAADTAVYYCARDPTGSRQKNAFDMWGQGTMVTVS
VL: AIQMTQSPSSLSASVGDRVTITCRASQNIRSYLNWYQQKPGKAPNLLIYGTTSLESGVPSRFSGSGSGTDFTLTISSLQPEDFATYYCQQSYHTPQTFGQGTKVEIKR
Turning to B13, the OD in assay [13] turned out to be 0.072 OD; in assay [14] it was 0.91 OD.
